Laboratory results taken from PMC9482650, “Quantitative fragmentomics allow affinity mapping of interactomes” (Nature Communications, 2022).
One block for each binder: values may come before it.

What was measured:
Test in all cases: holdup assay
Set-up in all cases: key: below the threshold = too weak to quantify, mostly under pKd 3.1 to 4
ARHGAP21, Q5T5U3 = target: T1, ARHGAP21, Q5T5U3
T1 sequence (Q5T5U3 45-169, limits assumed, looked up): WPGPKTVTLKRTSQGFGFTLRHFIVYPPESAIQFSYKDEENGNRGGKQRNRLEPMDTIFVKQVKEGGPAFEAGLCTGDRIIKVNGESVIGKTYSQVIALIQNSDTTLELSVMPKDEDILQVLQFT

GRIP2_6, Q9C0E4 = target: GRIP2_6, Q9C0E4
Chain of GRIP2_6, Q9C0E4 (Q9C0E4 648-740): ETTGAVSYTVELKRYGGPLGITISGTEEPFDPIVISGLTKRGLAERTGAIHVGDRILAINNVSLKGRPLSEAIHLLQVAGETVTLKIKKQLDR

GIPC2, Q8TF65 = target: GIPC2, Q8TF65
Chain of GIPC2, Q8TF65 (Q8TF65 112-203): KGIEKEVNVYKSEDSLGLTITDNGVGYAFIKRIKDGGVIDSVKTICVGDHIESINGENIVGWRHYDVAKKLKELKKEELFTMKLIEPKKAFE

ARHGEF12, Q9NZN5-2 = target: ARHGEF12, Q9NZN5-2
Chain of ARHGEF12, Q9NZN5-2 (Q9NZN5 other isoform, or with tags, fused parts or gaps): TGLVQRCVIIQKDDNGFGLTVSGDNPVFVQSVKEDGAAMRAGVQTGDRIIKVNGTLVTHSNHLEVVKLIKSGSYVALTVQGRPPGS

MAGI2_2, Q86UL8 = target: MAGI2_2, Q86UL8
Chain of MAGI2_2, Q86UL8 (Q86UL8 410-522): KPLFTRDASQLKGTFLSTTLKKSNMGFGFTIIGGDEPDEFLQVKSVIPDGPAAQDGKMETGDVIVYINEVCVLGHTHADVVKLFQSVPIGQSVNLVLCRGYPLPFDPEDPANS

LRRC7, Q96NW7 = target: T2, LRRC7, Q96NW7
T2 sequence (Q96NW7 1440-1537, limits assumed, looked up): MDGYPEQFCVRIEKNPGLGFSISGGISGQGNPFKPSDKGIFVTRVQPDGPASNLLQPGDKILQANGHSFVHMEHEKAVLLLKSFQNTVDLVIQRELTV

TX1BP3, O14907 = target: T3, TX1BP3, O14907
T3 sequence (O14907 10-122, limits assumed, looked up): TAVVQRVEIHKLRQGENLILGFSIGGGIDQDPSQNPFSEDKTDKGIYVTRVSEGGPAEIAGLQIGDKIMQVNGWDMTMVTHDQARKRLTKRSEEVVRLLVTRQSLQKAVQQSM

TJP3_3, O95049 = target: T4, TJP3_3, O95049
T4 sequence (O95049 375-456, limits assumed, looked up): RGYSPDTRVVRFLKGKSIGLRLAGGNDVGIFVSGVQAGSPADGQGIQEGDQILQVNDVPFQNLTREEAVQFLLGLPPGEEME

MAGI2_5, Q86UL8 = target: MAGI2_5, Q86UL8
Chain of MAGI2_5, Q86UL8 (Q86UL8 915-1017): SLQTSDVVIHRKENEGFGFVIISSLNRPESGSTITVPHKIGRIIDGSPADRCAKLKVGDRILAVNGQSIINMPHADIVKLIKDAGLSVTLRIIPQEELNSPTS

GORASP1, Q9BQQ3 = target: GORASP1, Q9BQQ3
Chain of GORASP1, Q9BQQ3 (Q9BQQ3 1-208): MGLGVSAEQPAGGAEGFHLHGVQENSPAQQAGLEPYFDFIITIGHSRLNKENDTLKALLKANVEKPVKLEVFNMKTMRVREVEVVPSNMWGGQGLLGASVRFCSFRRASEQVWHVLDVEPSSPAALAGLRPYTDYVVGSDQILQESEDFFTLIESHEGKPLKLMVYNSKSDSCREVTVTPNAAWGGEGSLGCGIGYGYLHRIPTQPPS

HTRA3, P83110 = target: T5, HTRA3, P83110
T5 sequence (P83110 354-453, limits assumed, looked up): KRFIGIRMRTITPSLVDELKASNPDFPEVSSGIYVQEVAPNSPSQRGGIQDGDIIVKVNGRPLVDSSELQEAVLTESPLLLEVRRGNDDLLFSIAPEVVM

DLG1_2, Q12959 = target: DLG1_2, Q12959
Chain of DLG1_2, Q12959 (Q12959 314-412): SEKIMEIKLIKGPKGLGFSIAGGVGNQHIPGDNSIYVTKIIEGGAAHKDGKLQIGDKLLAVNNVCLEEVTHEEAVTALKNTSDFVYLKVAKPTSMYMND

GRIP2_3, Q9C0E4 = target: GRIP2_3, Q9C0E4
Chain of GRIP2_3, Q9C0E4 (Q9C0E4 238-339): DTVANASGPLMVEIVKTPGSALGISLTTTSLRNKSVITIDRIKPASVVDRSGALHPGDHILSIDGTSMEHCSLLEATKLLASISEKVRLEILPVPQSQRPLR

ARHGEF11, O15085 = target: T6, ARHGEF11, O15085
T6 sequence (O15085 42-136, limits assumed, looked up): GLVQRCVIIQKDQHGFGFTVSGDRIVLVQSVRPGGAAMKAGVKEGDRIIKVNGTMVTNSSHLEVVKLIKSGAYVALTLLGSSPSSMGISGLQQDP

PCLO, Q9Y6V0 = target: T7, PCLO, Q9Y6V0
T7 sequence (Q9Y6V0 4491-4600, limits assumed, looked up): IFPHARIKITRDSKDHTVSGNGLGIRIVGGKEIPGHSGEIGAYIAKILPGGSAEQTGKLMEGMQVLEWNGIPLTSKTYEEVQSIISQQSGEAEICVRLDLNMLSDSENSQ

SYNJ2BP, P57105 = target: T8, SYNJ2BP, P57105
T8 sequence (P57105 8-110, limits assumed, looked up): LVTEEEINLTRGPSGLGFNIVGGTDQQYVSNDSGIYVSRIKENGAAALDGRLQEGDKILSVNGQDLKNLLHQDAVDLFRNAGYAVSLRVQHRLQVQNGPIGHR

APBA2_2, Q99767 = target: T9, APBA2_2, Q99767
T9 sequence (Q99767 654-744, limits assumed, looked up): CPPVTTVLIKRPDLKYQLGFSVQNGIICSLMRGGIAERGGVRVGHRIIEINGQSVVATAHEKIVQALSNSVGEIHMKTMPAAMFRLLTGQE

DLG3_2, Q92796 = target: T10, DLG3_2, Q92796
T10 sequence (Q92796 221-321, limits assumed, looked up): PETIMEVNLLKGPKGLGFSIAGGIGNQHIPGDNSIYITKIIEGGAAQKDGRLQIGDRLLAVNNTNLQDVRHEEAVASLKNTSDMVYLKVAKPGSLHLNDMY

DFNB31_2, Q9P202 = target: T11, DFNB31_2, Q9P202
T11 sequence (Q9P202 274-371, limits assumed, looked up): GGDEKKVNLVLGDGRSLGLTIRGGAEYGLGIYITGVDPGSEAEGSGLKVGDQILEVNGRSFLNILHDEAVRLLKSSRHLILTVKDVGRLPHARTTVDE

GRIP2_7, Q9C0E4 = target: GRIP2_7, Q9C0E4
Chain of GRIP2_7, Q9C0E4 (Q9C0E4 934-1023): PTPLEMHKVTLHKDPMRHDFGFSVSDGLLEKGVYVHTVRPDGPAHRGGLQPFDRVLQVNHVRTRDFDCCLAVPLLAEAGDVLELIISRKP

DFNB31_1, Q9P202 = target: T12, DFNB31_1, Q9P202
T12 sequence (Q9P202 135-233, limits assumed, looked up): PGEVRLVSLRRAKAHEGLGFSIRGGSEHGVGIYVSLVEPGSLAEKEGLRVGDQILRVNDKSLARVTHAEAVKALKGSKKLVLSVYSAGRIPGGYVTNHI

DFNB31_3, Q9P202 = target: T13, DFNB31_3, Q9P202
T13 sequence (Q9P202 811-907, limits assumed, looked up): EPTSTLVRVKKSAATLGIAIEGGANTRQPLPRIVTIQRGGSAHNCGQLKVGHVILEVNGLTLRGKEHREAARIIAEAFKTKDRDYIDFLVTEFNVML

AHNAK1, Q09666 = target: AHNAK1, Q09666
Chain of AHNAK1, Q09666 (Q09666 4-100): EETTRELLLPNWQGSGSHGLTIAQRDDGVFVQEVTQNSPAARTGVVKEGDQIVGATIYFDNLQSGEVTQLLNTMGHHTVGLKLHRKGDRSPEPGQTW

[1] = plain residues with an end cap or a label only (N-terminal biotin on a linker: ttds)
[2] = plain residues with an end cap or a label only (N-terminal biotin on a linker: ahx)

pKd (ARHGAP21, Q5T5U3; [1]): below the threshold
pKd (GRIP2_6, Q9C0E4; [1]): below the threshold
pKd (GIPC2, Q8TF65; [1]): below the threshold
pKd (ARHGEF12, Q9NZN5-2; [1]): 4.34
pKd (MAGI2_2, Q86UL8; [1]): 3.83
pKd (LRRC7, Q96NW7; [1]): below the threshold
pKd (TX1BP3, O14907; [1]): 4.26
pKd (TJP3_3, O95049; [1]): below the threshold
pKd (MAGI2_5, Q86UL8; [1]): below the threshold
pKd (GORASP1, Q9BQQ3; [1]): below the threshold
pKd (HTRA3, P83110; [1]): below the threshold
pKd (DLG1_2, Q12959; [1]): 4.71
pKd (GRIP2_3, Q9C0E4; [1]): below the threshold
pKd (ARHGEF11, O15085; [1]): 3.48
pKd (PCLO, Q9Y6V0; [1]): below the threshold
pKd (SYNJ2BP, P57105; [1]): 4.69
pKd (APBA2_2, Q99767; [1]): below the threshold
pKd (DLG3_2, Q92796; [1]): 4.28
pKd (DFNB31_2, Q9P202; [1]): below the threshold
pKd (GRIP2_7, Q9C0E4; [1]): below the threshold
pKd (DFNB31_1, Q9P202; [1]): 3.95
pKd (DFNB31_3, Q9P202; [1]): below the threshold
pKd (AHNAK1, Q09666; [1]): below the threshold
B1: MAPK12, P53778 (peptide)
chain: GARVSKETPL

pKd (ARHGAP21, Q5T5U3; [1]): below the threshold
pKd (GRIP2_6, Q9C0E4; [1]): below the threshold
pKd (GIPC2, Q8TF65; [1]): below the threshold
pKd (ARHGEF12, Q9NZN5-2; [1]): 3.98
pKd (MAGI2_2, Q86UL8; [1]): below the threshold
pKd (LRRC7, Q96NW7; [1]): below the threshold
pKd (TX1BP3, O14907; [1]): 4.31
pKd (TJP3_3, O95049; [1]): below the threshold
pKd (MAGI2_5, Q86UL8; [1]): 3.74
pKd (GORASP1, Q9BQQ3; [1]): below the threshold
pKd (HTRA3, P83110; [1]): below the threshold
pKd (DLG1_2, Q12959; [1]): 4.38
pKd (GRIP2_3, Q9C0E4; [1]): below the threshold
pKd (ARHGEF11, O15085; [1]): 3.56
pKd (PCLO, Q9Y6V0; [1]): below the threshold
pKd (SYNJ2BP, P57105; [1]): 5
pKd (APBA2_2, Q99767; [1]): below the threshold
pKd (DLG3_2, Q92796; [1]): 4.38
pKd (DFNB31_2, Q9P202; [1]): below the threshold
pKd (GRIP2_7, Q9C0E4; [1]): below the threshold
pKd (DFNB31_1, Q9P202; [1]): below the threshold
pKd (DFNB31_3, Q9P202; [1]): below the threshold
pKd (AHNAK1, Q09666; [1]): below the threshold
B2: GDA, Q9Y2T3 (peptide)
chain: KQVVPFSSSV

pKd (ARHGAP21, Q5T5U3; [2]): below the threshold
pKd (GRIP2_6, Q9C0E4; [2]): below the threshold
pKd (GIPC2, Q8TF65; [2]): below the threshold
pKd (ARHGEF12, Q9NZN5-2; [2]): 4.44
pKd (MAGI2_2, Q86UL8; [2]): below the threshold
pKd (LRRC7, Q96NW7; [2]): below the threshold
pKd (TX1BP3, O14907; [2]): below the threshold
pKd (TJP3_3, O95049; [2]): below the threshold
pKd (MAGI2_5, Q86UL8; [2]): 5.32
pKd (GORASP1, Q9BQQ3; [2]): below the threshold
pKd (HTRA3, P83110; [2]): below the threshold
pKd (DLG1_2, Q12959; [2]): 4.37
pKd (GRIP2_3, Q9C0E4; [2]): below the threshold
pKd (ARHGEF11, O15085; [2]): 4.51
pKd (PCLO, Q9Y6V0; [2]): below the threshold
pKd (SYNJ2BP, P57105; [2]): 4.33
pKd (APBA2_2, Q99767; [2]): below the threshold
pKd (DLG3_2, Q92796; [2]): 4.52
pKd (DFNB31_2, Q9P202; [2]): below the threshold
pKd (GRIP2_7, Q9C0E4; [2]): below the threshold
pKd (DFNB31_1, Q9P202; [2]): below the threshold
pKd (DFNB31_3, Q9P202; [2]): below the threshold
pKd (AHNAK1, Q09666; [2]): below the threshold
B3: DLL1, O00548 (peptide)
chain: KDECVIATEV
